B1: 5KPH (parent)
chain: EEKRQVKQVAKEKLLEQSPNSKVQVRRVQKQGNTIRVELELRTNGKKENYTVEVERQGNTWTVKRITRT

Variants of: B1
Experiment: folding stability dG (cDNA display proteolysis); higher = more stable
Conditions: PBS, room temperature

First: EEKRQVKQVAKEKLLEQSPNSKVQVRRVQKQGNTIRVHLELRTNGKKENYTVEVERQGNTWTVKRITRT [E38H]
Second: EEKRQVKQVAKEKLLEQSPNSKVQVRRVQKQGNTIRVILELRTNGKKENYTVEVERQGNTWTVKRITRT [E38I]
The “folding stability dG” value of the first is higher: 4.14 kcal/mol for the first, 4.1 kcal/mol for the second.

Compared with EEKRQVKQVAKEKLLEQSPNSKVQVRRVQKQGNTIRVKLELRTNGKKENYTVEVERQGNTWTVKRITRT [E38K], EEKRQVKQVAKEKLLEQSPNSKVQVRRVQKQGNTIRVLLELRTNGKKENYTVEVERQGNTWTVKRITRT [E38L] is higher in “folding stability dG” value: 3.7 kcal/mol for the first, 4.18 kcal/mol for the second.

Compared with EEKRQVKQVAKEKLLEQSPNSKVQVRRVQKQGNTIRVMLELRTNGKKENYTVEVERQGNTWTVKRITRT [E38M], EEKRQVKQVAKEKLLEQSPNSKVQVRRVQKQGNTIRVNLELRTNGKKENYTVEVERQGNTWTVKRITRT [E38N] is lower in “folding stability dG” value: 4.43 kcal/mol for the first, 3.51 kcal/mol for the second.

First: EEKRQVKQVAKEKLLEQSPNSKVQVRRVQKQGNTIRVPLELRTNGKKENYTVEVERQGNTWTVKRITRT [E38P]
Second: EEKRQVKQVAKEKLLEQSPNSKVQVRRVQKQGNTIRVQLELRTNGKKENYTVEVERQGNTWTVKRITRT [E38Q]
The “folding stability dG” value of the first is lower: 1.08 kcal/mol for the first, 3.76 kcal/mol for the second.

Compared with EEKRQVKQVAKEKLLEQSPNSKVQVRRVQKQGNTIRVRLELRTNGKKENYTVEVERQGNTWTVKRITRT [E38R], EEKRQVKQVAKEKLLEQSPNSKVQVRRVQKQGNTIRVSLELRTNGKKENYTVEVERQGNTWTVKRITRT [E38S] is higher in “folding stability dG” value: 3.69 kcal/mol for the first, 3.89 kcal/mol for the second.

Compared with EEKRQVKQVAKEKLLEQSPNSKVQVRRVQKQGNTIRVTLELRTNGKKENYTVEVERQGNTWTVKRITRT [E38T], EEKRQVKQVAKEKLLEQSPNSKVQVRRVQKQGNTIRVVLELRTNGKKENYTVEVERQGNTWTVKRITRT [E38V] is lower in “folding stability dG” value: 3.99 kcal/mol for the first, 3.85 kcal/mol for the second.

First: EEKRQVKQVAKEKLLEQSPNSKVQVRRVQKQGNTIRVWLELRTNGKKENYTVEVERQGNTWTVKRITRT [E38W]
Second: EEKRQVKQVAKEKLLEQSPNSKVQVRRVQKQGNTIRVYLELRTNGKKENYTVEVERQGNTWTVKRITRT [E38Y]
The “folding stability dG” value of the first is lower: 4.29 kcal/mol for the first, 4.76 kcal/mol for the second.

Going from EEKRQVKQVAKEKLLEQSPNSKVQVRRVQKQGNTIRVEAELRTNGKKENYTVEVERQGNTWTVKRITRT [L39A] to EEKRQVKQVAKEKLLEQSPNSKVQVRRVQKQGNTIRVECELRTNGKKENYTVEVERQGNTWTVKRITRT [L39C], the “folding stability dG” value rises from 3.65 kcal/mol to 3.88 kcal/mol.

First: EEKRQVKQVAKEKLLEQSPNSKVQVRRVQKQGNTIRVEFELRTNGKKENYTVEVERQGNTWTVKRITRT [L39F]
Second: EEKRQVKQVAKEKLLEQSPNSKVQVRRVQKQGNTIRVEGELRTNGKKENYTVEVERQGNTWTVKRITRT [L39G]
The “folding stability dG” value of the first is higher: 3.48 kcal/mol for the first, 2.35 kcal/mol for the second.

Going from EEKRQVKQVAKEKLLEQSPNSKVQVRRVQKQGNTIRVEHELRTNGKKENYTVEVERQGNTWTVKRITRT [L39H] to EEKRQVKQVAKEKLLEQSPNSKVQVRRVQKQGNTIRVEIELRTNGKKENYTVEVERQGNTWTVKRITRT [L39I], the “folding stability dG” value rises from 0.352 kcal/mol to 3.67 kcal/mol.

First: EEKRQVKQVAKEKLLEQSPNSKVQVRRVQKQGNTIRVEKELRTNGKKENYTVEVERQGNTWTVKRITRT [L39K]
Second: EEKRQVKQVAKEKLLEQSPNSKVQVRRVQKQGNTIRVEMELRTNGKKENYTVEVERQGNTWTVKRITRT [L39M]
The “folding stability dG” value of the first is lower: -0.798 kcal/mol for the first, 3.66 kcal/mol for the second.

Going from EEKRQVKQVAKEKLLEQSPNSKVQVRRVQKQGNTIRVENELRTNGKKENYTVEVERQGNTWTVKRITRT [L39N] to EEKRQVKQVAKEKLLEQSPNSKVQVRRVQKQGNTIRVERELRTNGKKENYTVEVERQGNTWTVKRITRT [L39R], the “folding stability dG” value rises from -0.472 kcal/mol to -0.147 kcal/mol.

First: EEKRQVKQVAKEKLLEQSPNSKVQVRRVQKQGNTIRVESELRTNGKKENYTVEVERQGNTWTVKRITRT [L39S]
Second: EEKRQVKQVAKEKLLEQSPNSKVQVRRVQKQGNTIRVETELRTNGKKENYTVEVERQGNTWTVKRITRT [L39T]
The “folding stability dG” value of the first is lower: 1.55 kcal/mol for the first, 2.59 kcal/mol for the second.

Going from EEKRQVKQVAKEKLLEQSPNSKVQVRRVQKQGNTIRVEVELRTNGKKENYTVEVERQGNTWTVKRITRT [L39V] to EEKRQVKQVAKEKLLEQSPNSKVQVRRVQKQGNTIRVEWELRTNGKKENYTVEVERQGNTWTVKRITRT [L39W], the “folding stability dG” value falls from 3.83 kcal/mol to 2.03 kcal/mol.

First: EEKRQVKQVAKEKLLEQSPNSKVQVRRVQKQGNTIRVEYELRTNGKKENYTVEVERQGNTWTVKRITRT [L39Y]
Second: EEKRQVKQVAKEKLLEQSPNSKVQVRRVQKQGNTIRVELALRTNGKKENYTVEVERQGNTWTVKRITRT [E40A]
The “folding stability dG” value of the first is lower: 2.59 kcal/mol for the first, 3.52 kcal/mol for the second.

First: EEKRQVKQVAKEKLLEQSPNSKVQVRRVQKQGNTIRVELCLRTNGKKENYTVEVERQGNTWTVKRITRT [E40C]
Second: EEKRQVKQVAKEKLLEQSPNSKVQVRRVQKQGNTIRVELDLRTNGKKENYTVEVERQGNTWTVKRITRT [E40D]
The “folding stability dG” value of the first is higher: 3.51 kcal/mol for the first, 3.04 kcal/mol for the second.

First: EEKRQVKQVAKEKLLEQSPNSKVQVRRVQKQGNTIRVELFLRTNGKKENYTVEVERQGNTWTVKRITRT [E40F]
Second: EEKRQVKQVAKEKLLEQSPNSKVQVRRVQKQGNTIRVELGLRTNGKKENYTVEVERQGNTWTVKRITRT [E40G]
The “folding stability dG” value of the first is higher: 3.81 kcal/mol for the first, 2.84 kcal/mol for the second.

Going from EEKRQVKQVAKEKLLEQSPNSKVQVRRVQKQGNTIRVELHLRTNGKKENYTVEVERQGNTWTVKRITRT [E40H] to EEKRQVKQVAKEKLLEQSPNSKVQVRRVQKQGNTIRVELILRTNGKKENYTVEVERQGNTWTVKRITRT [E40I], the “folding stability dG” value rises from 3.59 kcal/mol to 4.1 kcal/mol.

Going from EEKRQVKQVAKEKLLEQSPNSKVQVRRVQKQGNTIRVELKLRTNGKKENYTVEVERQGNTWTVKRITRT [E40K] to EEKRQVKQVAKEKLLEQSPNSKVQVRRVQKQGNTIRVELLLRTNGKKENYTVEVERQGNTWTVKRITRT [E40L], the “folding stability dG” value rises from 3.32 kcal/mol to 3.96 kcal/mol.

For EEKRQVKQVAKEKLLEQSPNSKVQVRRVQKQGNTIRVELMLRTNGKKENYTVEVERQGNTWTVKRITRT [E40M], the “folding stability dG” value was 3.87 kcal/mol.

— the MegaScale stability set (Tsuboyama et al. 2023)
